The target of this series is T1, DHX36 (UniProt Q9H2U1).
T1 sequence (Q9H2U1 whole entry, looked up): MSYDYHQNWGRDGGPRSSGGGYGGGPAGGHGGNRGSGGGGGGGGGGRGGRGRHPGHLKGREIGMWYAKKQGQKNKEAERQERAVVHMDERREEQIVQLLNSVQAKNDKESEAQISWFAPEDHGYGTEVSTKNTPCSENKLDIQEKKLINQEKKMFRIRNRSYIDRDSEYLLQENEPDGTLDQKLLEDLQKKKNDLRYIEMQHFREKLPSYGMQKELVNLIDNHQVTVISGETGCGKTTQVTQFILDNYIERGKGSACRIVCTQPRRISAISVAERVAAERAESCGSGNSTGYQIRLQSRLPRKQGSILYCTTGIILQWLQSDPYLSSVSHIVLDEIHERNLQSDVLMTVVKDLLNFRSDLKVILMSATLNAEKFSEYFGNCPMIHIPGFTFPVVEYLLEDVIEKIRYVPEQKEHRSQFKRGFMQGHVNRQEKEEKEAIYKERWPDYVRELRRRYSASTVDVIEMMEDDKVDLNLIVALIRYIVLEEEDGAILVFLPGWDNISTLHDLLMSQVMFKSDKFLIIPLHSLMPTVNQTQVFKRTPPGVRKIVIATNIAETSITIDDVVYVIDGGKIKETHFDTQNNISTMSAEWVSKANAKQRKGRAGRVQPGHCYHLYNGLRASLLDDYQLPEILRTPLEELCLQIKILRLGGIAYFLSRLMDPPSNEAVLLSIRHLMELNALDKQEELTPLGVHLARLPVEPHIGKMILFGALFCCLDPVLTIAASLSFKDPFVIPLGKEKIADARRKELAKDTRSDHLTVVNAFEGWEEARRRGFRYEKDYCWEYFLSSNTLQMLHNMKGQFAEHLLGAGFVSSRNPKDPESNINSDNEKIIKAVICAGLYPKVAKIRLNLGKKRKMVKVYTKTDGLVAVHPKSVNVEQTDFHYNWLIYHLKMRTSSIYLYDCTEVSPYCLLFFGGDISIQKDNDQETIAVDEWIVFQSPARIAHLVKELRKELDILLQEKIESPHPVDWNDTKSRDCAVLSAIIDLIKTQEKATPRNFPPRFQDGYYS
Put plainly: ELISA. Conditions: ELISA performed as in Zyner et al. (ref 43); buffer, salt, pH and temperature not given in the material.

For UGUGGGAGGGGCGGGUCUGGGUGC [NRAS G4], the dissociation constant (Kd) was 0.9 nM.

The values above are taken from article PMC8611094.
